Results taken from patent US20220411521A1 (Ablynx, published 2022).

T1: human GITR (human, UniProt Q9Y5U5 26-241)
T1 sequence: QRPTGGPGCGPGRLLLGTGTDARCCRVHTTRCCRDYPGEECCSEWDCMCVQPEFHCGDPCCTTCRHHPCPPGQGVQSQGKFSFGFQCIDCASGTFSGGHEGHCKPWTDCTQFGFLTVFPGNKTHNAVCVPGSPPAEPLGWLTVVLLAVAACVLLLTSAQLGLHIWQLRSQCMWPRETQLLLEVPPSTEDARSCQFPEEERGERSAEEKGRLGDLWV

T2: human GITR-Fc (Enzo Life Sciences, ALX-522-061-C050) (human, UniProt Q9Y5U5 26-162)
T2 construct: Bought protein; not shown: Fc part of the bought fusion protein; not described
T2 sequence: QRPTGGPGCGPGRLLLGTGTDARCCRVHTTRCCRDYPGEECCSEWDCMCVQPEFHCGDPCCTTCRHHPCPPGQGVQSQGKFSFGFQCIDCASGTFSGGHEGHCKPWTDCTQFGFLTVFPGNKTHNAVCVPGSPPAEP

B1: A023100101 (VHH)
chain: DVQLVESGGGVVQPGGSLRLSCAASETIFSIDSMAWYRQAPGKQRELVAAITGGGSPNYADSVKGRFTISSDVSKRTVYLQMNSLRPEDTALYYCNAEGQAGWGTALLDYWGQGTLVTVSSGGGGSGGGSEVQLVESGGGVVQPGGSLRLSCAASETIFSIDSMAWYRQAPGKQRELVAAITGGGSPNYADSVKGRFTISSDVSKRTVYLQMNSLRPEDTALYYCNAEGQAGWGTALLDYWGQGTLVTVSSGGGGSGGGSEVQLVESGGGVVQPGGSLRLSCAASETIFSIDSMAWYRQAPGKQRELVAAITGGGSPNYADSVKGRFTISSDVSKRTVYLQMNSLRPEDTALYYCNAEGQAGWGTALLDYWGQGTLVTVSSGGGGSGGGGSGGGGSGGGGSGGGGSGGGGSGGGGSEVQLVESGGGVVQPGGSLRLSCAASGFTFRSFGMSWVRQAPGKGPEWVSSISGSGSDTLYADSVKGRFTISRDNSKNTLYLQMNSLRPEDTALYYCTIGGSLSRSSQGTLVTVSSA
B2: A0231051E01 (VHH)
VHH: EVQLVESGGGLVQAGGSLRLSCAASGSIFSFIVMGWYRQAPGEQRALVATVTSGGDTFYVDSVKDRFTISRDNAKNTVYLQMNSLKPEDTAVYFCYFTKVSPYKETTWGQGTLVTVSS
notes: Monovalent Nanobody expressed in E. coli with a triple Flag, HIS6 tag; also called A0231PMP051E01; PA0231PMP051E01.1; not shown: C-terminal triple FLAG and HIS6 tag
B3: A0231052E08 (VHH)
VHH: EVQLVESGGGLVQAGGSLRLSCTGSRSIFSTYAMAWHRQAPGKQRELVGFIYWGGTTTYSDSVKGRFTISRDNAKNTMYLQMNSLKPEDAGVYYCNIYGSYALPWGQGTLVTVSS
notes: Monovalent Nanobody expressed in E. coli with a triple Flag, HIS6 tag; also called A0231PMP052E08; PA0231PMP052E08.1; not shown: C-terminal triple FLAG and HIS6 tag
B4: A023100107 (VHH)
chain: DVQLVESGGGVVQPGGSLRLSCAASETIFSIDSMAWYRQAPGKQRELVAAITGGGSPNYADSVKGRFTISSDVSKRTVYLQMNSLRPEDTALYYCNAEGQAGWGTALLDYWGQGTLVTVSSGGGGSGGGSEVQLVESGGGVVQPGGSLRLSCAASETIFSIDSMAWYRQAPGKQRELVAAITGGGSPNYADSVKGRFTISSDVSKRTVYLQMNSLRPEDTALYYCNAEGQAGWGTALLDYWGQGTLVTVSSGGGGSGGGSEVQLVESGGGVVQPGGSLRLSCAASETIFSIDSMAWYRQAPGKQRELVAAITGGGSPNYADSVKGRFTISSDVSKRTVYLQMNSLRPEDTALYYCNAEGQAGWGTALLDYWGQGTLVTVSSGGGGSGGGSEVQLVESGGGVVQPGGSLRLSCAASETIFSIDSMAWYRQAPGKQRELVAAITGGGSPNYADSVKGRFTISSDVSKRTVYLQMNSLRPEDTALYYCNAEGQAGWGTALLDYWGQGTLVTVSSGGGGSGGGGSGGGGSGGGGSGGGGSGGGGSGGGGSEVQLVESGGGVVQPGGSLRLSCAASGFTFRSFGMSWVRQAPGKGPEWVSSISGSGSDTLYADSVKGRFTISRDNSKNTLYLQMNSLRPEDTALYYCTIGGSLSRSSQGTLVTVSSA
B5: A023100105 (VHH)
chain: DVQLVESGGGVVQPGGSLRLSCAASGSIFSIDSMGWYRQAPGKQRELVAAITSSTNYADSVKGRFTISRDNSKNTVYLQMNSLRPEDTALYYCNLEGQAGWGTALINYWGQGTLVTVSSGGGGSGGGSEVQLVESGGGVVQPGGSLRLSCAASGSIFSIDSMGWYRQAPGKQRELVAAITSSTNYADSVKGRFTISRDNSKNTVYLQMNSLRPEDTALYYCNLEGQAGWGTALINYWGQGTLVTVSSGGGGSGGGSEVQLVESGGGVVQPGGSLRLSCAASGSIFSIDSMGWYRQAPGKQRELVAAITSSTNYADSVKGRFTISRDNSKNTVYLQMNSLRPEDTALYYCNLEGQAGWGTALINYWGQGTLVTVSSGGGGSGGGGSGGGGSGGGGSGGGGSGGGGSGGGGSEVQLVESGGGVVQPGGSLRLSCAASGFTFRSFGMSWVRQAPGKGPEWVSSISGSGSDTLYADSVKGRFTISRDNSKNTLYLQMNSLRPEDTALYYCTIGGSLSRSSQGTLVTVSSA

Experiments:
human GITR [1] = target: T1, human GITR; assay: cell-based or functional assay
human GITR [2] = target: T1, human GITR; assay: cell-based or functional assay; remark: listed apart in the source
[3] = target: T2, human GITR-Fc (Enzo Life Sciences, …); assay: ProteOn XPR36; human GITR-Fc amine-coupled on GLC chip, Nanobody injected at 6 concentrations
Procedure: Affinity was determined on the Proteon XPR36. Briefly, after human GITR-Fc (Enzo Life Sciences, ALX-522-061-C050) was immobilized on a GLC chip via amine coupling, a range of 6 concentrations of different monovalent Nanobodies (representing each family) were injected. The Ko values were determined by using the calculated association rate and dissociation rate constants (Table 1) (ProteOn Manager 3.1.0, Version 3.1.0.6 (2011)).

Row | Binder | EC50, HEK293_NF-κB luc reporter (human GITR [1]) [nM] | Efficacy (%), human GITR ligand = 100%, HEK293_NF-κB luc reporter (human GITR [1]) [%] | EC50, IFN-γ read-out, human T cell activation assay (human GITR [2]) [nM] | Maximal efficacy (%), human GITR ligand = 100%, IFN-γ read-out (human GITR [2]) [%] | Kd [3] [nM] | koff [3] [s⁻¹] | kon [3] [M⁻¹ s⁻¹]
1 | B1 | 0.02 | 136 | 0.0642 | 92.6 |  |  | 
2 | B2 |  |  |  |  | 78 | 0.015 | 190000
3 | B3 |  |  |  |  | 120 | 0.09 | 750000
4 | B4 | 0.0147 | 147 | 0.0646 | 99.8 |  |  | 
5 | B5 |  |  | 0.06 | 97 |  |  | 
